Assay results published in patent US20200148732A1 (UNIVERSITY OF COPENHAGEN, published 2020).
Where no end group is shown, it is not given here.

T1: TONSL Ankyrin Repeat Domain (ARD, residues 512-692), purified recombinant (human, UniProt Q96HA7 512-692)
T1 construct: Expressed as a GST fusion in E. coli; Used in ITC, peptide pull-down and native MS; also called TONSL ARD; TONSL-ARD
T1 sequence: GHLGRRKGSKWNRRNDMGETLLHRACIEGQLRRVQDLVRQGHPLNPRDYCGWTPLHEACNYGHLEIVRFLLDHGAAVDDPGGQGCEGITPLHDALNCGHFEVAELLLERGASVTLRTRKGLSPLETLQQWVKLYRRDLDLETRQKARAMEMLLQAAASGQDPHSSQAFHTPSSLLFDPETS

T2: TONSL acidic stretch and ARD (aa. 450-692) (human, UniProt Q96HA7 450-692)
T2 sequence: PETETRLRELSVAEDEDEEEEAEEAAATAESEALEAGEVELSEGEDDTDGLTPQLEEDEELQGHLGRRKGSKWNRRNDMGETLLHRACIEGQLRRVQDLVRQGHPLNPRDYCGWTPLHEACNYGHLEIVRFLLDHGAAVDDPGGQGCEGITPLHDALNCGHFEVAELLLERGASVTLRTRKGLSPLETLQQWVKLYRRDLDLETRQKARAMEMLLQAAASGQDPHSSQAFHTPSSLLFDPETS


Legend:
[1] = molecular target: T1, TONSL Ankyrin Repeat Domain (ARD, …); experiment: native MS, titration Kd (constant peptide to protein ratio, decreasing protein concentration); Titration Kd; no apparent Kd given for Example 11
Experimental: (§1) The mass spectrometry (MS) analysis were carried out on an electrospray time-of-flight mass spectrometer (LCT, Waters, Manchester, UK) equipped with an automated chip-based nanoESI device (Triversa Nanomate, Advion Biosciences, Ithaca, N.Y.). External calibration was done in the positive ion mode over the mass range m/z 200-6000 using the multiply charged ions produced by 0.4 μM horse heart myoglobin solution diluted in water/acetonitrile 50/50 mixture acidified with 0.5% (v/v) formic acid. […] […] Incubations were performed at room temperature for 15 min. Mass spectra were recorded using reduced cone voltage (Vc=50 V) and elevated interface pressure (Pi=5 mbar) which correspond to fine-tuned instrumental settings providing sufficient ion desolvation while preserving the integrity of weak non-covalent complexes in the gas phase. Micromass MassLynx 4.1 was used for data acquisition and processing.
(§2) This protein proportion is used to calculate the bound protein, the free protein and the free peptide concentrations. The Kd is calculated by using the following equation for each protein/peptide concentration. The final Kd for each peptide is the average of the Kd at different protein/peptide ratio.

[2] = molecular target: T2, TONSL acidic stretch and ARD (aa. …); experiment: ITC, peptide injected into TONSL (450-692); the value stands without a heading in the legend box, in the column where the other peptide has NB
[3] = molecular target: T1, TONSL Ankyrin Repeat Domain (ARD, …); experiment: ITC, peptide injected into TONSL ARD
[4] = molecular target: T1, TONSL Ankyrin Repeat Domain (ARD, …); experiment: native MS, apparent Kd
[5] = molecular target: T1, TONSL Ankyrin Repeat Domain (ARD, …); experiment: native MS, abundance of the 1:1 protein-peptide complex, 10 µM TONSL ARD
Experimental: The mass spectrometry (MS) analysis were carried out on an electrospray time-of-flight mass spectrometer (LCT, Waters, Manchester, UK) equipped with an automated chip-based nanoESI device (Triversa Nanomate, Advion Biosciences, Ithaca, N.Y.). External calibration was done in the positive ion mode over the mass range m/z 200-6000 using the multiply charged ions produced by 0.4 μM horse heart myoglobin solution diluted in water/acetonitrile 50/50 mixture acidified with 0.5% (v/v) formic acid. […] The protein concentration was set to 10 μM and different peptide concentrations ranging from 1 to 5 molar equivalents were added. Incubations were performed at room temperature for 15 min. Mass spectra were recorded using reduced cone voltage (Vc=50 V) and elevated interface pressure (Pi=5 mbar) which correspond to fine-tuned instrumental settings providing sufficient ion desolvation while preserving the integrity of weak non-covalent complexes in the gas phase. Micromass MassLynx 4.1 was used for data acquisition and processing.
The proportion of 1:1 stoichiometry complex is calculated according to the following equation: […]

[6] = molecular target: T1, TONSL Ankyrin Repeat Domain (ARD, …); experiment: native MS, titration Kd (constant peptide to protein ratio, decreasing protein concentration)
Experimental: as §1, §2

[7] = molecular target: T3, MCM2 Histone-binding Domain (HBD, residues 61-130) (human, UniProt P49736 61-130); experiment: GST pull-down of recombinant H3-H4 and MCM2 HBD with GST-TONSL ARD, stained gel (MCM2 HBD offered together with H3-H4)
T3 construct: In the crystal it is linked to TONSL ARD by the G4 linker; also called MCM2 HBD
T3 sequence (P49736 61-130): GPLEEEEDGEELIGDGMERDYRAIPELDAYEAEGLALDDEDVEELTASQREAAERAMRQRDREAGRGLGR

Kd [4] [nM]	% P1L1 [5] [%]	binding result [7]	Binder	also measured
400	81.4		KGGAARHRKVLR-NH2 (H4 12-23 with Lys16 replaced by Ala) [Lys-Gly-Gly-Ala-Ala-Arg-His-Arg-Lys-Val-Leu-Arg-NH2, Example 15]	
1000	73.3		KGGAKRHAKVLR-NH2 (H4 12-23 with Arg19 replaced by Ala) [Lys-Gly-Gly-Ala-Lys-Arg-His-Ala-Lys-Val-Leu-Arg-NH2, Example 14]	Kd [6]: 960 nM
2200	62.6		AKRHRKVLR-NH2 [Ala-Lys-Arg-His-Arg-Lys-Val-Leu-Arg-NH2, Example 12]	Kd [6]: 1950 nM
		no binding	GST-TONSL ARD E530A (other, not shown: GST tag of the pGEX-6P-1 vector) GHLGRRKGSKWNRRNDMGATLLHRACIEGQLRRVQDLVRQGHPLNPRDYCGWTPLHEACNYGHLEIVRFLLDHGAAVDDPGGQGCEGITPLHDALNCGHFEVAELLLERGASVTLRTRKGLSPLETLQQWVKLYRRDLDLETRQKARAMEMLLQAAASGQDPHSSQAFHTPSSLLFDPETS	
		no binding	GST-TONSL ARD W563A (other, not shown: GST tag of the pGEX-6P-1 vector) GHLGRRKGSKWNRRNDMGETLLHRACIEGQLRRVQDLVRQGHPLNPRDYCGATPLHEACNYGHLEIVRFLLDHGAAVDDPGGQGCEGITPLHDALNCGHFEVAELLLERGASVTLRTRKGLSPLETLQQWVKLYRRDLDLETRQKARAMEMLLQAAASGQDPHSSQAFHTPSSLLFDPETS	
		no binding	GST-TONSL ARD N571A (other, not shown: GST tag of the pGEX-6P-1 vector) GHLGRRKGSKWNRRNDMGETLLHRACIEGQLRRVQDLVRQGHPLNPRDYCGWTPLHEACAYGHLEIVRFLLDHGAAVDDPGGQGCEGITPLHDALNCGHFEVAELLLERGASVTLRTRKGLSPLETLQQWVKLYRRDLDLETRQKARAMEMLLQAAASGQDPHSSQAFHTPSSLLFDPETS	
		no binding	GST-TONSL ARD E568A (other, not shown: GST tag of the pGEX-6P-1 vector) GHLGRRKGSKWNRRNDMGETLLHRACIEGQLRRVQDLVRQGHPLNPRDYCGWTPLHAACNYGHLEIVRFLLDHGAAVDDPGGQGCEGITPLHDALNCGHFEVAELLLERGASVTLRTRKGLSPLETLQQWVKLYRRDLDLETRQKARAMEMLLQAAASGQDPHSSQAFHTPSSLLFDPETS	

The next lines start with the binder.

Binder	Kd [4] [nM]	% P1L1 [5] [%]	binding result [7]	also measured
LGKGGAKRHRKVLRDNI (C-terminal amide (-NH2), Bought from JPT Peptide Technologies)				Kd [1]: 77 nM
GLGKGGAKRHRKVLRDN (Synthesised at Tufts University Core Facility; also called H4 (9-25); H4 tail (9-25)) [histone H4 (residues 9-25) peptide, unmodified]				Kd [2]: 1500 nM
GLGKGGAKRWRKVLRDN (His18 mutated to Trp18) [histone H4 (residues 9-25) peptide H18W]				binding result [3]: no binding (tested: molar ratio about 1.8)
KGGAKRHRKVLR-NH2 [Lys-Gly-Gly-Ala-Lys-Arg-His-Arg-Lys-Val-Leu-Arg-NH2, Example 13]	100	89.9		Kd [6]: 310 nM
GST-TONSL ARD D559A (other, not shown: GST tag of the pGEX-6P-1 vector) GHLGRRKGSKWNRRNDMGETLLHRACIEGQLRRVQDLVRQGHPLNPRAYCGWTPLHEACNYGHLEIVRFLLDHGAAVDDPGGQGCEGITPLHDALNCGHFEVAELLLERGASVTLRTRKGLSPLETLQQWVKLYRRDLDLETRQKARAMEMLLQAAASGQDPHSSQAFHTPSSLLFDPETS			no binding	
GST-TONSL ARD D604A (other, not shown: GST tag of the pGEX-6P-1 vector) GHLGRRKGSKWNRRNDMGETLLHRACIEGQLRRVQDLVRQGHPLNPRDYCGWTPLHEACNYGHLEIVRFLLDHGAAVDDPGGQGCEGITPLHAALNCGHFEVAELLLERGASVTLRTRKGLSPLETLQQWVKLYRRDLDLETRQKARAMEMLLQAAASGQDPHSSQAFHTPSSLLFDPETS			no binding	
